Results on five molecules are retold here after patent US20180111972A1 (Stanford University, published 2018).

Assay [1] deals with T1, PDGFRβ-His (residues 1-314 of PDGFR-β with C-terminal hexahistidine tag) (human, UniProt P09619 33-314).
T1 construct: range 1-314; Monovalent form, expressed in FreeStyle 293-F cells; also called PDGRβ-His; PDGFR-His
Description: yeast surface display titration, flow cytometry. On the procedure:
(§1) Cells were incubated in large enough volumes to avoid ligand depletion and appropriate time to reach equilibrium. During the last hour of incubation, yeast were incubated with 1:250 dilution of chicken anti-c-Myc (Invitrogen) in PBSA. […] Yeast were washed, pelleted, and resuspended in PBSA immediately before analysis by flow cytometry using BD FACSCalibur or BD Accuri C6. Flow cytometry data were analyzed using FlowJo (v7.6.1 and v10, Treestar) or BD Accuri C6 software. Statistical analysis was performed using GraphPad Prism 6.

Assay [2] addresses T2, soluble PDGFRβ (Fc or His format not stated for the experiment) (human, UniProt P09619 33-532).
T2 construct: extracellular domain
Description: yeast surface display titration; table under the panel 'PDGFR binding', Fc or His form not given.

Assay [3] concerns the target T1, PDGFRβ-His (residues 1-314 of PDGFR-β …). Description: yeast surface display, flow cytometry titration of PDGFRβ-His (panel 'PDGFRβ binding'). The procedure:
as §1
On the technique in general: A flow cytometer gives signals particle by particle.

Assay [4] concerns the target T2, soluble PDGFRβ (Fc or His format not …). Description: yeast surface display, flow cytometry titration of soluble receptor; panel 'PDGFR binding', Fc or His form not given.
In another assay the target is T3, VEGFR2-Fc (R&D Systems) (human, UniProt P35968 20-764).
T3 construct: extracellular domain; Bought reagent; also called VEGFR-Fc; not shown: Fc part, detected with anti-human-IgG (Fc specific)
Description: yeast surface display, flow cytometry: VEGFR2-Fc bound, with and without pre-incubation with 100 nM PDGFRβ-Fc. The procedure: as §1

Assay [5] addresses T4, VEGFR2-His (residues 1-764 of VEGFR2, Ig-like domains 1-7, with hexahistidine tag) (human, UniProt P35968 20-764).
T4 construct: range 1-764; Monomeric form, expressed in FreeStyle 293-F cells; also called VEGFR-His
Description: yeast surface display titration, flow cytometry. The procedure:
as §1

In assay [6] the target is T5, soluble VEGFR2 (Fc or His format not stated for the experiment) (human, UniProt P35968 20-764).
T5 construct: extracellular domain
Description: yeast surface display titration; table under the panel 'VEGFR binding', Fc or His form not given.

The target in assay [7] is T5, soluble VEGFR2 (Fc or His format not …). Description: yeast surface display, flow cytometry dot plot: soluble receptor bound (FL1) against surface expression (FL2); receptor concentration not given.
The target in assay [8] is T6, scPDGF, single-chain version of wild-type PDGF-BB, soluble, FLAG and hexahistidine tags (human).
T6 chain: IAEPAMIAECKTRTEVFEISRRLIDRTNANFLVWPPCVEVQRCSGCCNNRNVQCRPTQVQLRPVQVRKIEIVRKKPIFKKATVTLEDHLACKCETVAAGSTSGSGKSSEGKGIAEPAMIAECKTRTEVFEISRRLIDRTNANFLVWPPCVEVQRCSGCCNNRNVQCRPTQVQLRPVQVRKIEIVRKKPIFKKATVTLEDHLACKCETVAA
Description: cell-based or functional assay.

The next assay has as its target T7, scPDGF, yeast-displayed (human).
T7 chain: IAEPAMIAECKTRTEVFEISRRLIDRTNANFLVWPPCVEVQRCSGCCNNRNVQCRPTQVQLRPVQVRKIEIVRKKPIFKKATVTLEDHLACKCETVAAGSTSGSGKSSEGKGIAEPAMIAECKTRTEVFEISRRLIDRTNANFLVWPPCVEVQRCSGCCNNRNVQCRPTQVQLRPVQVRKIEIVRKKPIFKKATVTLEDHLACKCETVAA
Description: yeast surface display of scPDGF, flow cytometry titration of PDGFRβ-Fc, anti-mouse-Fc detection. The procedure:
as §1
Bound protein was detected using fluorescently-labeled anti-His and anti-mouse-Fc antibodies.

The target of assay [9] is T8, human VEGFR on human umbilical vein endothelial cells (HUVECs) (human, UniProt P35968 20-1356).
T8 construct: The phosphorylation blots on these cells detect VEGFR2
Description: flow cytometry titration of the soluble FLAG-tagged protein on HUVECs, anti-FLAG detection. On the procedure:
(§2) To test binding to VEGFR, human umbilical vein endothelial cells (HUVECs) and murine angiosarcoma endothelial cells (SVR) were used.
(§3) Cell-binding assay. Varying concentrations of scPDGF, scVEGF, and PDGF/VEGF ligands were incubated with 25,000 PDGFR- or VEGFR-expressing cells in binding buffer (20 mM Tris pH 7.5 with 1 mM MgCl₂, 1 mM MnCl₂, 2 mM CaCl₂, 100 mM NaCl, and 1 mg/ml BSA) for 5 hr (BJ-5ta, NIH/3T3) or 3 hr (HUVEC, SVR) at 4° C. Cells were washed and pelleted, then incubated with 1:100 R-PE-conjugated anti-FLAG antibody (Prozyme) for 15 min on ice. Cells were washed, pelleted, and resuspended in binding buffer immediately before analysis by flow cytometry using BD Accuri C6. Flow cytometry data were analyzed using BD Accuri C6 software, and statistical analysis was performed using GraphPad Prism 6.

For assay [10], the target named is T1, PDGFRβ-His (residues 1-314 of PDGFR-β …). Description: KinExA Kinetics Injection. The procedure: (§4) Additionally, the kinetic parameter kₒₙ can be determined by using a “kinetics injection” experiment. A constant concentration of PDGF/VEGF ligand is injected with an equal volume of differing concentrations of PDGRβ-His or VEGFR2-His. The two solutions are allowed to mix briefly (several seconds) in the time required for the instrument to deliver the mixture to the detection bead column. The pre-equilibrium concentrations of free ligand is fit to the standard bimolecular rate equation to obtain kₒₙ.
(§5) Kinetic Exclusion Assay (KinExA). All experiments were performed on a KinExA 3200 instrument with siliconized flow cell (Sapidyne Instruments Inc). […] 30 μg of receptor was incubated in 1 ml of 50 mM sodium bicarbonate, 0.5 M sodium citrate buffer, pH 8.3, for 2 hr at room temperature with rocking. Beads were allowed to settle by gravity and liquid removed. Beads were blocked by incubating in 1 ml of 10 mg/ml BSA in 1 M Tris buffer, pH 8.0, for 1 hr at room temperature with rocking, and stored in blocking buffer at 4° C. for up to one week until use. Running buffer contained PBS with 10 mM imidazole and 0.02% sodium azide. Samples were prepared in running buffer with 1 mg/ml BSA. Binding reactions were prepared with a fixed concentration of PDGF/VEGF ligands and dilution series of PDGFR or VEGFR. Captured PDGF/VEGF ligands were detected using a Dylight 649-conjugated anti-FLAG antibody (Rockland) at 1:1000 dilution in sample buffer. Kinetic experiments were performed with the “Kinetics Injection” method defined in the KinExA software. Data were analyzed with KinExA Pro Software. The Kd was determined from a global fit of two concentration curves using the “n-curve analysis” tool and the titrant concentrations as reference. […] The kₒₙ was calculated as a fit of the pre-equilibrium free ligand concentrations to the bimolecular binding equation using the “Kinetics Injection” tool.

Assay [11] addresses T4, VEGFR2-His (residues 1-764 of VEGFR2, …). Description: KinExA Kinetics Injection. The procedure:
as §4, §5
A general note: In KinExA the mixture passes briefly over coated beads that capture the unbound partner.

Assay [12] has as its target T1, PDGFRβ-His (residues 1-314 of PDGFR-β …). Description: KinExA, equilibrium titration in solution, n-curve analysis. On the procedure: (§6) For KinExA measurements, a constant amount of PDGF/VEGF ligand is titrated with differing concentrations of PDGRβ-His or VEGFR2-His. The solutions are incubated for an appropriate amount of time to allow the ligand-receptor binding reaction to reach equilibrium. The solution is then briefly exposed to a solid support containing immobilized PDGFR or VEGFR, which captures unbound ligand. The amount of ligand bound to the solid support is then detected using a fluorescently-labeled antibody. […] For each binding interaction measured, curves for two concentrations of the constant ligand are performed. By performing two experiments with fixed ligand concentrations above and below the Kd, and fitting both sets of data with a nonlinear regression analysis, a more accurate measurement for the affinity can be obtained.
(§7) Kinetic Exclusion Assay (KinExA). All experiments were performed on a KinExA 3200 instrument with siliconized flow cell (Sapidyne Instruments Inc). […] 30 μg of receptor was incubated in 1 ml of 50 mM sodium bicarbonate, 0.5 M sodium citrate buffer, pH 8.3, for 2 hr at room temperature with rocking. Beads were allowed to settle by gravity and liquid removed. Beads were blocked by incubating in 1 ml of 10 mg/ml BSA in 1 M Tris buffer, pH 8.0, for 1 hr at room temperature with rocking, and stored in blocking buffer at 4° C. for up to one week until use. Running buffer contained PBS with 10 mM imidazole and 0.02% sodium azide. Samples were prepared in running buffer with 1 mg/ml BSA. Binding reactions were prepared with a fixed concentration of PDGF/VEGF ligands and dilution series of PDGFR or VEGFR. Captured PDGF/VEGF ligands were detected using a Dylight 649-conjugated anti-FLAG antibody (Rockland) at 1:1000 dilution in sample buffer. Kinetic experiments were performed with the “Kinetics Injection” method defined in the KinExA software. Data were analyzed with KinExA Pro Software.

Assay [13] deals with T4, VEGFR2-His (residues 1-764 of VEGFR2, …). The assay is described as above. The procedure:
as §6, §7

The target of assay [14] is T8, human VEGFR on human umbilical vein …. Description: flow cytometry on HUVECs, soluble ligand titrated 3 h at 4 C, anti-FLAG-PE. On the procedure:
as §2, §3

Assay [15] concerns the target T1, PDGFRβ-His (residues 1-314 of PDGFR-β …). Description: KinExA, calculated from Kd and kon. On the procedure: (§8) By performing two experiments with fixed ligand concentrations above and below the Kd, and fitting both sets of data with a nonlinear regression analysis, a more accurate measurement for the affinity can be obtained.
as §4, §5

For assay [16], the target named is T4, VEGFR2-His (residues 1-764 of VEGFR2, …). Description: KinExA, calculated from Kd and kon. On the procedure:
as §8, §4, §5

T4 sequence (P35968 other isoform, or with tags, fused parts or gaps limits assumed, form in doubt): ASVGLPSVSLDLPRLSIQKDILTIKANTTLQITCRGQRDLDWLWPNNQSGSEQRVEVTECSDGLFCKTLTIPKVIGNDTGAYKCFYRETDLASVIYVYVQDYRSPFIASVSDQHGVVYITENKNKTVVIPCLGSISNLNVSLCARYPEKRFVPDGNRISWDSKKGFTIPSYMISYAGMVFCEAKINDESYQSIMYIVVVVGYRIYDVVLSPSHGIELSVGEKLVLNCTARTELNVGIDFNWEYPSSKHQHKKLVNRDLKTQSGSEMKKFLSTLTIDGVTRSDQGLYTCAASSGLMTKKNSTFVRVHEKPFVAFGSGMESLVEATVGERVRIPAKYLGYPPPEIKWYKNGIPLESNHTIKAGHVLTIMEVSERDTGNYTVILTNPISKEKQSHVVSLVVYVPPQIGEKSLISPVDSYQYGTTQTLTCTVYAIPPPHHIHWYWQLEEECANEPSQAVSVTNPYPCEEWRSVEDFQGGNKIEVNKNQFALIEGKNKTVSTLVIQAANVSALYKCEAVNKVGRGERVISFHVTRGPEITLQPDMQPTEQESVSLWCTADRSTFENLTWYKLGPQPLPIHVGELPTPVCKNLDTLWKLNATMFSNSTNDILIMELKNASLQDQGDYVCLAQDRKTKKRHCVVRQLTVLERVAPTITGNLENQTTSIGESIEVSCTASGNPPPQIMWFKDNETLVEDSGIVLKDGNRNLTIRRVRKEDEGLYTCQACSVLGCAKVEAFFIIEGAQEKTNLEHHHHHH
T8 sequence (P35968 20-1356 limits assumed): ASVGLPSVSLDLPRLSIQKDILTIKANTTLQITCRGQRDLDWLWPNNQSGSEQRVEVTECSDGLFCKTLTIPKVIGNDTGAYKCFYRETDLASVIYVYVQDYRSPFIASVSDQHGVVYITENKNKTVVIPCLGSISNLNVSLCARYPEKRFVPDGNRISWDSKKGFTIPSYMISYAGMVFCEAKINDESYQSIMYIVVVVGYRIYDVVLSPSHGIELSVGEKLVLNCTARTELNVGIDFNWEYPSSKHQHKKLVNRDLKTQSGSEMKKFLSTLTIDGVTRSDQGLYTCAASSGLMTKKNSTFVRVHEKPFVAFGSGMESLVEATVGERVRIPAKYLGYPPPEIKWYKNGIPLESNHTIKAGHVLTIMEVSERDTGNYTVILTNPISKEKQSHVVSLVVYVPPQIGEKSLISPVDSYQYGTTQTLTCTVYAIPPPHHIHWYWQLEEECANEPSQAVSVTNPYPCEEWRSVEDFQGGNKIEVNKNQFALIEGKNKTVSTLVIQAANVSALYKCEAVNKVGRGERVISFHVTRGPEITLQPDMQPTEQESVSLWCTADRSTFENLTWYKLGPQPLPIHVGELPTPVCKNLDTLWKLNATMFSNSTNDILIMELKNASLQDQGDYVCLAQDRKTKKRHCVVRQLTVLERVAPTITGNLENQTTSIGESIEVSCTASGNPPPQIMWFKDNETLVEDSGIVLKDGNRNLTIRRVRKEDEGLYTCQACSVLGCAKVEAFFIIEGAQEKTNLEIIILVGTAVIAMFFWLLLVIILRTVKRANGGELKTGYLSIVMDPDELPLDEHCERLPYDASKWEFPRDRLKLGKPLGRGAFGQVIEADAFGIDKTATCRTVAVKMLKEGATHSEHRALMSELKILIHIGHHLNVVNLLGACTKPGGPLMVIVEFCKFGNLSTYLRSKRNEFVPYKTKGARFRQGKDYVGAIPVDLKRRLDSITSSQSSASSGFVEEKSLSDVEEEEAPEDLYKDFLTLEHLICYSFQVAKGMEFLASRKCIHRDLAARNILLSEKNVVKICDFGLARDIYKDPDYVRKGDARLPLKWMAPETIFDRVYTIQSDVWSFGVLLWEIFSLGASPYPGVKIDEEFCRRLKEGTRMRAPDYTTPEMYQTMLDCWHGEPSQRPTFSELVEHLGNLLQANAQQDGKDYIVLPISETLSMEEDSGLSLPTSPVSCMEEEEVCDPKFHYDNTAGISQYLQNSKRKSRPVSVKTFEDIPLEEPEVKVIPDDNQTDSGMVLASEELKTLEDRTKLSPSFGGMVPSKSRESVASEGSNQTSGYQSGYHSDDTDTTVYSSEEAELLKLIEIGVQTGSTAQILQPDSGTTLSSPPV
T5 sequence (P35968 20-764): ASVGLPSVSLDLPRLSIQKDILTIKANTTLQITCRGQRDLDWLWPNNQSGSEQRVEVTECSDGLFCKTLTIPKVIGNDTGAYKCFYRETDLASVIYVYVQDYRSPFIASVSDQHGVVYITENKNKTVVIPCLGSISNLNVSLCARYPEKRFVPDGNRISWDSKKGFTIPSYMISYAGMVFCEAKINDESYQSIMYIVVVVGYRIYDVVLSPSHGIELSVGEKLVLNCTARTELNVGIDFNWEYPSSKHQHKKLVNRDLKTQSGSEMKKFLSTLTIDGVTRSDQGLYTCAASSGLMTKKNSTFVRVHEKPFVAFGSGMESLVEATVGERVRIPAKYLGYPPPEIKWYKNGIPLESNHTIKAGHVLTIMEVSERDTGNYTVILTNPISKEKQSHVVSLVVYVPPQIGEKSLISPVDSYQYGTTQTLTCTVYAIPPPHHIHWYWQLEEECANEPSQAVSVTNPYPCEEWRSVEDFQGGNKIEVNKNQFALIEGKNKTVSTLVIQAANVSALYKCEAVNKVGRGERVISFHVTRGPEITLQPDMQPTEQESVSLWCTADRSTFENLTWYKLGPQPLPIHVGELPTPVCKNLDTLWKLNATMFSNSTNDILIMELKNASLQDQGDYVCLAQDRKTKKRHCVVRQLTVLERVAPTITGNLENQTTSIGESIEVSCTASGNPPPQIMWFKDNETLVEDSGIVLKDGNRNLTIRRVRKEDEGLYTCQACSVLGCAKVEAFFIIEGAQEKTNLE
T3 sequence (P35968 20-764): as above

B1: PVRF (PV6 with K87R and I182F), yeast-displayed (designed binder)
chain: IAEPAMIAECHPIETLVDIFQEYPDEIEYIFKPSCVPLMRCGGCCNNRNVQCRPTEESNITMQIMRIKPHQGQHIGEMSFLQHNKCRCETVAAGSTSGSGKSSEGKGEVVKFMDVYQRSYCKTRTEVFEISRRLIDRTNANFLVWPPCVEVQRCSGCCNDEGLECVPTQVQLRPVQVRKIEFVRKKPIFKKATVTLEDHLACECRPKKD
In general, Kd refers to the free concentration of one partner at which half of the binding sites on the other are occupied at equilibrium, for simple one-to-one binding. The term EC50 (read off the curve) denotes the midpoint of the concentration-response curve. Take B1: the values for the Kd in assay [1] and in assay [2] were 0.37 nM and 0.24 nM, respectively. For the same molecule, the “EC50 (read off the curve)” value in [3] was roughly 0.3 nM; in assay [4], roughly 0.2 nM. The binding result with VEGFR2-Fc (R&D Systems) is listed as “binds”.

B2: V4-22 (PV6 with F20L, E28G, Q71R, D160H), yeast-displayed (designed binder)
chain: IAEPAMIAECHPIETLVDILQEYPDEIGYIFKPSCVPLMRCGGCCNNRNVQCRPTEESNITMQIMRIKPHRGQHIGEMSFLQHNKCKCETVAAGSTSGSGKSSEGKGEVVKFMDVYQRSYCKTRTEVFEISRRLIDRTNANFLVWPPCVEVQRCSGCCNHEGLECVPTQVQLRPVQVRKIEIVRKKPIFKKATVTLEDHLACECRPKKD
notes: Variant from the Vshuf library
As to B2, the figures for the Kd in assay [5] and in assay [6] were 1.3 nM and 1.9 nM, respectively.

B3: PV1 PDGF/VEGF hybrid construct, yeast-displayed (designed binder)
chain: IAEPAMIAECKTRETLVDIFQEYPDEIEYIFKPSCVPLMRCSGCCNNRNVQCRPTEESNITMQIMRIKPHQGQHIGEMSFLQHLACKCETVAAGSTSGSGKSSEGKGEVVKFMDVYQRSYCHPITEVFEISRRLIDRTNANFLVWPPCVEVQRCGGCCNDEGLECVPTQVQLRPVQVRKIEIVRKKPIFKKATVTLEDHNKCECRPKKD
In the case of B3, in [7], the binding result was “binds”.

B4: PDGFRβ-Fc (residues 1-314 of PDGFR-β fused to the Fc region of mouse IgG2a) (Fc fusion)
chain: LVVTPPGPELVLNVSSTFVLTCSGSAPVVWERMSQEPPQEMAKAQDGTFSSVLTLTNLTGLDTGEYFCTHNDSRGLETDERKRLYIFVPDPTVGFLPNDAEELFIFLTEITEITIPCRVTDPQLVVTLHEKKGDVALPVPYDHQRGFSGIFEDRSYICKTTIGDREVDSDAYYVYRLQVSSINVSVNAVQTVVRQGENITLMCIVIGNEVVNFEWTYPRKESGRLVEPVTDFLLDMPYHIRSILHIPSAELEDSGTYTCNVTESVNDHQDEKAINITVVESG
notes: range 1-314; Expressed in FreeStyle 293-F cells; also called PDGRβ-Fc; PDGFR-Fc; not shown: Fc region of mouse IgG2a
As for B4, in assay [8], the “IC50 of inhibition of NIH/3T3 proliferation stimulated by scPDGF, alamarBlue” value was 8.7 nM and the “IC50 of inhibition of stimulation by 100 pM scPDGF, PathHunter reporter cells” value was found to be 130 pM. Besides, the “EC50 (read off the curve)” value with scPDGF, yeast-displayed was roughly 0.03 nM.

B5: PV6 PDGF/VEGF chimera, soluble, N-terminal FLAG and C-terminal hexahistidine tags (designed binder)
chain: DYKDDDDKIAEPAMIAECHPIETLVDIFQEYPDEIEYIFKPSCVPLMRCGGCCNNRNVQCRPTEESNITMQIMRIKPHQGQHIGEMSFLQHNKCKCETVAAGSTSGSGKSSEGKGEVVKFMDVYQRSYCKTRTEVFEISRRLIDRTNANFLVWPPCVEVQRCSGCCNDEGLECVPTQVQLRPVQVRKIEIVRKKPIFKKATVTLEDHLACKCRPKKDHHHHHH
notes: Secreted from S. cerevisiae YVH10 and treated with Endo Hf; also called soluble PV6
As a reminder, the kon is the second-order rate constant of association. Usually koff stands for the rate constant with which the complex falls apart. For B5, the “EC50 (read off the curve)” value in assay [9] was roughly 10 nM. In addition, the kon in [10] was determined as 2.2e+07 M⁻¹ s⁻¹; in [11], 240000 M⁻¹ s⁻¹. In addition, the results for the Kd in [12], in [13] and in [14] were 0.87 nM, 38 nM and 11 nM, respectively. Besides, the koff is 0.019 s⁻¹ in assay [15] and 0.0092 s⁻¹ in [16].
